The results in this text go back to the nanobody polyreactivity screen of Harvey et al. (2022).

This series is described as follows: yeast display, Sf9 membrane polyspecificity reagent, FACS + sequencing; frameworks hold sequencing errors. The method in brief:
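Using colony PCR, genes from sorted yeast display clones were amplified, then sequenced on MiSeq at 2 × 250 and filtered by CDR length. The clones had been stained with 10% biotinylated, detergent-solubilized Sf9 membrane reagent for 1 hour at 4 °C and sorted by FACS into low and high (top ~1%) gates on anti-HA and streptavidin fluorescence. Polyreactivity labels come from the gate of origin.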
Regarding “QDQLVESGGGLVQAGGSLRLSCAASGITFVYYAMGWYRQAPGKERELVAAITGSGDSTYYADSVKGRFTISRDNAKNTVYLQMNSLKPEDTAVYYCAAEAWWYGGFGYWGQGTQVTVSS”, the “polyreactivity (PSR sort gate)” value is reported as “high polyreactivity”. Regarding “QDQLVESGGGLVQAGGSLRLSCAASGITFWYYAMGWYRQAPGKERELVAAITRSGRTNYADSVKGRFTISRDYAKNTVYLQMNILKPEDTAVYYCAVDLYSFSPRYYYWGQGTQVTVSS”, the “polyreactivity (PSR sort gate)” value was “low polyreactivity”.

Turning to “QDQLVESGGGLVQAGGSLRLSCAASGLIFSYYAMGWYRQAPGKERELVAAIDWISGSKYYADSVKGLFTISRDNAKNTVYLQMNSLKPEDTAVYYCAAYGSFWYARFGYCGQGTQVTVSS”, the “polyreactivity (PSR sort gate)” value is given as “low polyreactivity”. Take “QDQLVESGGGLVQAGGSLRLSCAASGLIFYEYAMGWYRQAPGKERELVAAISRGGRTYYADSVKGRFTISRDNAKNTVYLQMNSLKPEDTAVYYCADRHWPEKYDYWGQGTHVTVSS”: the “polyreactivity (PSR sort gate)” value was “high polyreactivity”. Regarding “QDQLVESGGGLVQAGGSLRLSCAASGLTFDKYVMGWYRQAPGKERELVAAITKGGGSTYYADSVKGRFTISRDNAKNTVYLQMNSLKPEDTAVYYCAVTRPLRYWGQGTQVTVSS”, the “polyreactivity (PSR sort gate)” value is reported as “high polyreactivity”.

Regarding “QDQLVESGGGLVQAGGSLRLSCAASGLTFDRYTMGWYRQAPGKERELVAAITRGGGNTYYADSVKGRFTISRDNAKNTVYLQMNSLKPEDTAVYYCAANRRDGYDYWGQGTQVTVSS”, the “polyreactivity (PSR sort gate)” value is “low polyreactivity”. For “QDQLVESGGGLVQAGGSLRLSCAASGLTFRKNAMGWSRQAPGKERELVAAISTGGRTYYADSVKGRFTISRDNAKNTVYLQMNSLKPEDTAVYYCNTVYVKSGLDYWGQGTQVTVSS”, the “polyreactivity (PSR sort gate)” value was “high polyreactivity”. As for “QDQLVESGGGLVQAGGSLRLSCAASGNIIVEKAMGWYRQAPGTERELVAVSTSGTSTYADSVKGRFTISRDNAKNTVYLQMYSLKPEDTAVYYCNKRQVFVSTGEYEFDYWGQGTQVTVSS”, the “polyreactivity (PSR sort gate)” value was “low polyreactivity”.

Turning to “QDQLVESGGGLVQAGGSLRLSCAASGNIYPYAMGWYRQAPGKEREFVAAIRYSGGITYYADSVKGRFTISRDNAKNTVYLQMNSLKPEDTAVYYCAAYGWGNRWYSRFDYWGQGTQVTVSS”, the “polyreactivity (PSR sort gate)” value is listed as “high polyreactivity”. For “QDQLVESGGGLVQAGGSLRLSCAASGRIFDTYAMGWYRQAPGKERELDAAITRRGGSTYYADSVKGRFTISRDIAKNTVYLQMNSLKPEDTAVYYCAKSLVNRHYDYWGQGTQVTVSS” the value was “low polyreactivity”; for “QDQLVESGGGLVQAGGSLRLSCAASGRIFGLYAMGCYRPAPGKERELVAAYADSVKGRFTISRDNAKNTVYLQMNSLKPEDTAVYYCAKGPLYAGYSIHLRDFNYWGQGTQVTVSS”, “low polyreactivity”; for “QDQLVESGGGLVQAGGSLRLSCAASGRIFGTYAMGWYRQAPGKERELVATISYSSGRTYYADSVKGRFTISRDNAKNTVYLQMNSLKPEDTAVYYCAAVGTGSSLRYDYWGQGTQVTVSS”, “high polyreactivity”.

Turning to “QDQLVESGGGLVQAGGSLRLSCAASGRIFSVNAMGWYRQAPGKERELVAAISRRGTSTFYADSVKGRFTISRDNAKNTVYLQMNSLKPEDTAVYYCAADFYPYQYKFDYWGQGTQVTVSS”, the “polyreactivity (PSR sort gate)” value is “high polyreactivity”. As for “QDQLVESGGGLVQAGGSLRLSCAASGRLIPSYVMGGYRPAQGKETEFVAGIRRGGGSTYYADSVKGRFTISRDNAKNTVYLQMNSLKPEDTAVYYSAAVKYSRPGVYHGHDSWRQGTQVTVSS”, the entry is “high polyreactivity”; as for “QDQLVESGGGLVQAGGSLRLSCAASGRTFAYKVMGWYRQAPGNERELVAANSRGGGRTYYADSVKGRFTISRDNAKNTVYLQMNSLKPEDTAVYYCNAASSGLSGRLTSIINDYWGQGTQVTVSS”, “high polyreactivity”; as for “QDQLVESGGGLVQAGGSLRLSCAASGRTFDNYAMGWYRQAPGKERELVARITDTGGSTYYADSVKGRFTISRDNAKNTVYLQMNSLKPEDTAVYYCAADSYPFAWYWLYYYWGQGTQVTVSS”, “low polyreactivity”.
